The values that follow come from patent publication US20220242962A1 (APTEVO RESEARCH AND DEVELOPMENT, published 2022).

Numbering of substitutions follows the chain as printed.

Experiment [1] deals with T1, Full-length Human OX40 (human, UniProt P43489 29-277).
T1 sequence: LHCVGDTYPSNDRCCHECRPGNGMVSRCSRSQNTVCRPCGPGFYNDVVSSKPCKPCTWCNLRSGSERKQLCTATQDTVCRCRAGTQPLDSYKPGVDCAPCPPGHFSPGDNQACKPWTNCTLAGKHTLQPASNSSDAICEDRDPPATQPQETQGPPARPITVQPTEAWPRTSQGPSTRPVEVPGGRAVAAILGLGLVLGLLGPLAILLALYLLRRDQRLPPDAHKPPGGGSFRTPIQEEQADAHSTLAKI
Put plainly: cell-based or functional assay.

Experiment [2] has as its target Full-length Human 4-1BB (human, UniProt Q07011 24-255). Put plainly: cell-based or functional assay.
Experiment [3] addresses T2, Human 4-1BB ECD-AFH (human).
T2 construct: entry includes the tags; also called FOB003; HUMAN CD137 ECD-AVI-FLAG-HIS
Put plainly: SPR (Biacore 8K), construct captured, monovalent ECD.

For experiment [4], the target named is T3, Fc gamma receptor RIIA R167 (human, UniProt P12318 36-218).
T3 construct: soluble SPR analyte
T3 sequence (looked up): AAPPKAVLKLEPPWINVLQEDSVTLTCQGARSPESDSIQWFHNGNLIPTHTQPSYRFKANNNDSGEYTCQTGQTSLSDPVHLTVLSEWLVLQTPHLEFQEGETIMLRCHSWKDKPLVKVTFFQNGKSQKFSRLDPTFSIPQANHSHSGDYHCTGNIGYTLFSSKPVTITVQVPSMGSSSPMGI
Put plainly: SPR, construct immobilized, receptor injected at 2 uM. As for the experimental part: (§1) Fcγ receptor binding to bispecific proteins was measured by Surface Plasmon Resonance on a Biacore 8K instrument at room temperature. Bispecific proteins with modified Fc regions to reduce binding to Fcγ receptors were directly immobilized on the surface of a CM5 sensor chip to a surface density of 4000 RU. A bispecific ADAPTIR™ protein with a wild type Fc was similarly immobilized to the surface as a positive control and used as a comparator to evaluate the reduction in binding resulting from changes incorporated into the Fc region amino acid sequence. Fcγ receptors (purchased from R&D Systems) were diluted to either 100 nM (FcγRI) or 2 μM (all other Fcγ receptors) in HBS-EP+ buffer before injecting over the surface of the prepared sensor chip at 30 μL/min for 60 seconds. Maximum RU values during association phase of each injection were used to compare the extent of binding of the modified Fc to wild type value and are reported in Table 17 below.
(In general: SPR reads the build-up and loss of mass on a sensor chip optically.)

Experiment [5] addresses T4, Fc gamma receptor RIIA H167 (human, UniProt P12318 36-218).
T4 construct: soluble SPR analyte
T4 sequence (looked up): T3 sequence (looked up) with R132H
Described as above. As for the experimental part:
as §1

For experiment [6], the target named is T5, Fc gamma receptor RIIB/C (human, UniProt P31994 46-217).
T5 construct: soluble SPR analyte
T5 sequence (looked up): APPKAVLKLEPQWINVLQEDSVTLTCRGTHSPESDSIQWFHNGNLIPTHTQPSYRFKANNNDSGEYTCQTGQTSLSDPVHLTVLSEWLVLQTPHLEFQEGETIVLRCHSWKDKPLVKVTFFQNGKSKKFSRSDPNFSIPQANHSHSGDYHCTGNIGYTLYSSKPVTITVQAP
The description is as above. The protocol: as §1

Experiment [7] has as its target T6, Full-length Cyno OX40 (cynomolgus monkey, UniProt P43489 29-277 (human entry)).
T6 construct: on CHO-K1SV cells; also called OXF004; cynomolgus OX40
T6 chain: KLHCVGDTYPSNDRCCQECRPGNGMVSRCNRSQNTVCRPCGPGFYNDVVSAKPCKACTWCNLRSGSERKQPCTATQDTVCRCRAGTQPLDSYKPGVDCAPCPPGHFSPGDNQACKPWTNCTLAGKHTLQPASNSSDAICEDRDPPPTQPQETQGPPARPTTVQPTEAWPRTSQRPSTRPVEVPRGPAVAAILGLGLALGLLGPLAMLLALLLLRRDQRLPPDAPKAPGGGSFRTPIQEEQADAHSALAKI
Briefly: flow cytometry on CHOK1SV cells transfected with cynomolgus OX40, goat anti-human Fc secondary antibody, MFI (Mean). The protocol:
Serial dilutions of ADAPTIR™ constructs were incubated with transfected target cells and subsequently labelled with a fluorescently-conjugated goat-a-human Fc secondary antibody. […] (See Example 25.)
Background: A flow cytometer gives signals particle by particle.

Sequence of Full-length Human 4-1BB (Q07011 24-255): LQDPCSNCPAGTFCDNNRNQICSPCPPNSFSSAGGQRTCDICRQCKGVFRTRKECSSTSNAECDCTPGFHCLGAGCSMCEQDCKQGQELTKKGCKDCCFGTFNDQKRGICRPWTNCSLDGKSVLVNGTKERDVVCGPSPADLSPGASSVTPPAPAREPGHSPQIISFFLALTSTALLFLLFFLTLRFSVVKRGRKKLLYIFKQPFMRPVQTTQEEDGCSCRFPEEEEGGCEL

B1: FXX01115 (bispecific antibody)
chain: EVQLVQSGAEVKKPGASVKVSCKASGYTFTSYWMNWVRQAPGQGLEWMGNIYPSGGSTNYAQKFQGRVTMTVDTSTSTVYMELSSLRSEDTAVYYCASFSDGYYAYAMDYWGQGTLVTVSSGGGGSGGGGSGGGGSGGGGSEIVMTQSPATLSLSPGERATLSCRASQSVSSYLNWYQQKPGQAPRLLIYYASRRHTGIPARFSGSGSGTDFTLTISSLQPEDFAVYYCQQGYNLPYTFGQGTKVEIKEPKSSDKTHTCPPCPAPPAAAPSVFLFPPKPKDTLMISRTPEVTCVVVDVSHEDPEVKFNWYVDGVEVHNAKTKPREEQYNSTYRVVSVLTVLHQDWLNGKEYKCAVSNKALPAPIEKTISKAKGQPREPQVYTLPPSRDELTKNQVSLTCLVKGFYPSDIAVEWESNGQPENNYKTTPPVLDSDGSFFLYSKLTVDKSRWQQGNVFSCSVMHEALHNHYTQKSLSLSPGGGGSPSSYVLTQPPSVSVAPGQTARITCGGNNIGSKSVNWFQQKPGQAPVLVVYDDSGRPSGVPNRFSGSTSGNTATLTISRVEAGDEADYYCQVWDSSSDHVVFGGGTKLTVLGGGGSGGGGSGGGGSGGGGSQVQLVESGGGVVQPGRSLRLSCAASGFTLSYYGMHWVRQAPGKGLEWVAAISHDGSDKYYADSVKGRFTISRDNSKNRLYLQMNSLRAEDTAVYYCSNDQFDPWGQGTLVTVSSR
notes: ADAPTIR anti-4-1BB x anti-OX40, pI variant; PAA (del) Fc
On to B1, for which, in experiment [1], the “OX40 Reporter Assay EC50” value amounted to 19 pM and the “OX40 Reporter Assay Max induction” value was 6.29e+06. Also, in experiment [2], the “4-1BB Reporter Assay EC50” value worked out at 18 pM and the “4-1BB Reporter Assay Max induction” value was 1.36e+06. In experiment [3], the Kd worked out at 16000 pM, the dissociation rate constant (koff) stood at 0.0041 s⁻¹ and the kon is 260000 M⁻¹ s⁻¹. In experiment [4], the “Max RU value during association” value was 89 RU. Moreover, the “Max RU value during association” value in experiment [5] turned out to be 12 RU. Moreover, in experiment [6], the “Max RU value during association” value is 19 RU. For the same molecule, the “EC50 (read off the curve)” value in experiment [7] lay in the range of 1000 to 2000 pM.

B2: FXX01119 (bispecific antibody)
chain: B1 chain with Q500K
notes: as for B1
On to B2, for which, in experiment [1], the “OX40 Reporter Assay EC50” value is 12 pM and the “OX40 Reporter Assay Max induction” value worked out at 6.07e+06. Besides, in experiment [2], the “4-1BB Reporter Assay EC50” value is 11 pM and the “4-1BB Reporter Assay Max induction” value came out at 1.37e+06. In addition, in experiment [3], the Kd came to 18000 pM, the koff was found to be 0.0046 s⁻¹ and the kon amounted to 260000 M⁻¹ s⁻¹. Besides, in experiment [4], the “Max RU value during association” value was determined as 103 RU. In addition, in experiment [5], the “Max RU value during association” value stood at 14 RU. Moreover, the “Max RU value during association” value in experiment [6] was 22 RU. In experiment [7], the “EC50 (read off the curve)” value lay within 1000 to 2000 pM.

As a reminder, the Kd is the concentration at which binding is half-saturated. The low end stands for higher affinity, the high end for lower affinity. In general, koff refers to a measure of how fast the partners let go of each other. Higher therefore signals a short-lived complex. A word on the kon: it is the rate constant with which the complex forms. High values mean faster complex formation, low ones slower complex formation. The EC50 (read off the curve) is the concentration that produces a half-maximal response. A low value points to a more potent agent.
